{
  "source": "patent US20170073382",
  "about": "(Nomadogen Biotechnologies Inc., published 2017)",
  "binders": {"B1": {"name": "gfaABC1D-NeuroD1 plasmid with TAL effector binding site (dsDNA)", "DNA 1": "TCGCTCGACGTACGCTCG", "DNA 2": "CGAGCGTACGTCGAGCGA"}},
  "target": "T1, synthetic TAL effector (RVG-LAMP-2B-NLS-TALE) (Artificial Sequence, UniProt P14727 SEQ:1-766)",
  "T1 chain": "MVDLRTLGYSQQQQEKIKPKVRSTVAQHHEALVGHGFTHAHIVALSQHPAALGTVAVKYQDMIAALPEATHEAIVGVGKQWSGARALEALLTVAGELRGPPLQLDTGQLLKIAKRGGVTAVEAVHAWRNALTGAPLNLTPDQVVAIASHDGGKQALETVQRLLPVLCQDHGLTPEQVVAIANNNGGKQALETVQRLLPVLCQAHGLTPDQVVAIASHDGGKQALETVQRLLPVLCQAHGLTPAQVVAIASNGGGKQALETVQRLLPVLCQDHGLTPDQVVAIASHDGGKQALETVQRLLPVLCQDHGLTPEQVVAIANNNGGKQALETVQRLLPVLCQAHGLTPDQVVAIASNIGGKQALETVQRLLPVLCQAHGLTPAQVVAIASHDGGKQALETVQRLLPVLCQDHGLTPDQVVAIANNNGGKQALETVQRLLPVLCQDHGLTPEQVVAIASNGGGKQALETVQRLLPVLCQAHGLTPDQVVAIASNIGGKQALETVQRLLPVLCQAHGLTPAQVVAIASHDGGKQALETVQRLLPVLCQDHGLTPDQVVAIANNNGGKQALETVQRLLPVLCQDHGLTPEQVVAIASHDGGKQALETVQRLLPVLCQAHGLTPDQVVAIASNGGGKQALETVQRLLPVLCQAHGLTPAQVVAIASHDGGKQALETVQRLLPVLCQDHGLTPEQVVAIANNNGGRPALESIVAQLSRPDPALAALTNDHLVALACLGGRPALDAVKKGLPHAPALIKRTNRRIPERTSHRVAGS",
  "experiment": "cell_activity",
  "settings": "tags: fusion to C-terminus of RVG-LAMP-2B-NLS, expressed from pcDNA3.0 in HEK-293",
  "data": [
    {"binder": "B1", "values": [
      {"measurement": "binding signal", "value": 3, "unit": "fold"}
    ]}
  ]
}
